The nature of this series: label from the status in PepcDB records.

Six sequences from a protein production outcome set (Wang et al. 2014) can be followed below.

As for “MLITISDIAWGIALSIWVAIVVLYISKLISKKFGAYVTRKAIHMLGGGIVAVLSPFVFNSPLVPIITSYLIMAYLITIRVLRKEMSWFMDKENLGEVFFAFSFGTVLLVMFILDPNYWTSTDLIYVAVLPLIFMSFGDGITGIIRNFVYKRRVKGLWGSMGMLIFCATVGYFVLNIPGLIAGILATVAELLPYIDDNISVPFLSFLFLYLFVRVL”, the protein production entry is on record as “failed”.
With “MLITVYCVRRDLSEVTFSLQVSPDFELRNFKVLCEAESRVPVEEIQIIHMERLLIEDHCSLGSYGLKDGDIVVLLQKDNVGPRAPGRAPNQPRVD” the entry was “failed”; with “MLKAFRKNQHPVAIPSTLPDGSAWPRISIVTPSYNNAKYIEETIISVLEQGYPDVEHIIVDGASKDGTAAILDRYRGHVARIIQEPDTGQSNAINKGMRLATGEIVTWLNSDDLLAPGALAAVAMAFHMSGADMVAGGCQLYRNGGYLGTHLTSCADGTLPAEEISDLYGGWQTGKFFYQPEVMFTRDLWQRAGGQVREDLHYCMDVEMWLRFASCGARLHVIGAPVAMFRLHEEQKTNNPDASPDEYIPVANAWRTTHGLPPITRTTLPPPPPPLKVAFVNDIGFQYGAGIAHQRLFTAVSSAGHTVRGWATGFQSPRDVFEATAARIISEIEAFEPDVVVCGNLHCTIADSDMLVRLTDRWPTCFCLHDLWLLTGHCPHPGFLDCVRHLAGCDHTCPSPDTYPTIAAGDIRKAWDAKREVMARDTFLALANSNWTRAQHDGCTTPGHEARLLRLGCDESIFHPGDRLEARRQLGLDMDAFVVLMPMVDFSSPFKGSVEGLEALSGAGLENLQVICFGVVEQEMIARFPILTALGYLHDPEAVATAYRAADVVVSFSHAETFGQTLMEAACCGIPSLAYRCTGLPDAVVDGVSGFLVDETPDALITRLHQLHADANLRASLGTWAALYARNSRCLQAEYHSFHTNLEEAGLLAPGRLGKNIFFAHTEAHEAEPSIPVSDPRPGSAFKNWLRRELPTPVWMALRRVYRGTKSRLGMHP”, “failed”.
With “MLKAYRYRIYPTKAQEEFFEKAFGCCRFVWNKMLEEKLEALKQGKKVPRITPARYKKEYPFLREVDSLALANVQMKQEKAFKDFFKNPKHFGIPKFKRKKDKQSYTTNNQQTKSGNETIRVDFEKGLLYLPKVKSGIKAVFHREFEGKIKSATVVKTKAGRYYVSILVDVQDPRNKEVNRIFENEITKRENFICGIDTGLISFVTIANDTGISKIEYPKYLIKAEKRLKRLQRQLSRKKEGSKNWEKARERLAKEYEYVKNSREDFLHKISKTIIDENQVVVVESLNVKGLSRTRLSKHILDSSWSKFLRYLKYKADWYGRKVIEADRSFPSSKMCSRCGYINKELKLKDRVWKCPKCKAVHDRDENAAKNLKNYGIAYIRNQ” the entry was “failed”; with “MLKDNLKEWFGFDEFKEGQEEIIDSVLHGRHTLGILPTGSGKSLCYQLPTYILEKPTLIISPLISLMDDQVMQMKLKGETHVACVHSGMDEVEKRDNIKRLSKSRFIYLSPEYILQPHNFKYIAHINFGLIVLDEAHCLSEWGYDFRPHYALVGKIIHHFNSATVLALTATAPPQLETDLSHILSLKLNVVQKSMNRENISLQHYNFNDDEGKIEWLLPFLSNSGPTIIYVSSKKRCLELAQMIYDSGYLTGIYHGDLSYQERQTVQQQFFNNDIPVIVATSAFGMGINKKDIRTVIHFHLSSSPSNYLQEIGRAGRDGKQSQAISLFQPDDSFILETLLFTDIITDDDITMFETGNHLPDEKEKILSTLNIQFTFSQLKDIFHQSYQRKRLGYMRMMGYTNLDQCRRKYLLEFFGEHPQSPKQCCDQDSRLEPIQILNRKKVKRKLSFNEKLYNLFET”, “failed”; with “MLKEIKRRNRMKNKRLIGIIAALAVLVAGSLIYSSMNKSEAQNNKDEKKITKIGVLQFVSHPSLDLIYKGIQDGLAEEGYKDDQVKIDFMNSEGDQSKVATMSKQLVANGNDLVVGIATPAAQGLASATKDLPVIMAAITDPIGANLVKDLKKPGGNVTGVSDHNPAQQQVELIKALTPNVKTIGALYSSSEDNSKTQVEEFKAYAEKAGLTVETFAVPSTNEIASTVTVMTSKVDAIWVPIDNTIASGFPTVVSSNQSSKKPIYPSATAMVEVGGLASVVIDQHDLGVATGKMIVQVLKGAKPADTPVNVFSTGKSVINKKIAQELGITIPESVLKEAGQVIE”, “not failed”.
